Values of other authors, collected in patent US20240238439A1, “HER3-BINDING ANTIBODY-DRUG CONJUGATE” (Hummingbird Bioscience Pte. Ltd., priority 2023, published 2024).

How the values were obtained:
[1] = target: human HER3 (Homo sapiens, UniProt P21860)
[2] = tested on: cyno, mouse and rat HER3
[3] = target: interaction between HER3 and HER2 (Homo sapiens, UniProt P21860); conditions: dose-dependent
[4] = target: interaction between HER3 and EGFR (Homo sapiens, UniProt P21860)
[5] = tested on: HER3 overexpressing cells
[6] = tested on: HER3-mediated signalling in cells of HER3-expressing cancer cell lines; conditions: in vitro
[7] = tested on: HER3-mediated signalling in HER3-expressing human cancer cell line-derived xenograft tumors; conditions: in vivo
[8] = tested on: xenograft tumors derived from a human cancer cell line harbouring an NRG gene fusion
[9] = tested on: cancer cells; conditions: in vitro
[10] = tested on: human cancer cell line-derived xenograft tumors; conditions: in vivo
[11] = tested on: thyroid cancer cell lines harbouring the V600E BRAF mutation
[12] = Differential Scanning Fluorimetry

B1: 10D1F hIgG1: HER3-binding antibody clone 10D1F (VH SEQ ID NO:33, VL SEQ ID NO:58) in human IgG1/Vκ format (antibody, V domains shown)
VH: QVQLQESGPGLVKPSQTLSLTCTVSGYSITSGYSWHWIRQHPGKGLEWIGSIRYSGGTDYNPSLKSLVTISADTSKNQFSLKLSSVTAADTAVYYCARMTTAPWYPFDYWGQGTTVTVSS
VL: DIQMTQSPSSVSASVGDRVTITCKASQIVGSNVAWYQQKPGKAPEPLIYSASYLYSGVPSRFSGSGSGTDFTLTISSLQPEDFATYYCQQYSSHPLTFGQGTKLEIK
For B1, the “binding to human HER3” value [1] is given as “high affinity and specificity”, the “cross-reactivity with other human EGFR family members” value [1] is given as “no cross-reactivity” and the “ligand dependence of binding to HER3” value [1] is given as “ligand (NRG)-independent”. For the same molecule, the “affinity of binding to human HER3” value ([1]; in the presence or absence of human NRG1) was “subpicomolar”, the “binding to cyno, mouse and rat HER3” value [2] was “high-affinity binding” and the “inhibition of interaction between HER3 and HER2” value [3] was “highly potent”. The “inhibition of interaction between HER3 and EGFR” value [4] was “inhibits interaction between HER3 and EGFR in a dose-dependent fashion”, the ADCC activity [5] was “induces ADCC activity against HER3 overexpressing cells in a dose-dependent manner” and the HER3-mediated signalling [6] was “inhibits HER3-mediated signalling”. The HER3-mediated signalling [7] was “inhibits HER3-mediated signalling”, the “growth of xenograft tumors” value [8] was “extremely potent at inhibiting growth” and the “growth of cancer cells” value [9] was “potently inhibits the growth of cancer cells in vitro”. For the same molecule, the “growth of xenograft tumors” value [10] was “potently inhibits growth of human cancer cell line-derived xenograft tumors in vivo”, the in vitro proliferation [11] was “inhibits in vitro proliferation” and the melting temperature [12] was 70.0 °C.
